Measured values reported in paper PMC7505815, “Estrogen receptor alpha (ERα)–mediated coregulator binding and gene expression discriminates the toxic ERα agonist diethylstilbestrol (DES) from the endogenous ERα agonist 17β-estradiol (E2)” (Cell Biology and Toxicology, 2020).

T1: Polyhistidine (His) tagged ERα ligand binding domain (amino acids 302–552) (UniProt P03372 302-552)
T1 construct: Detected on the array by a penta-His Alexa Fluor 488 antibody; Always tested with E2, DES or solvent (2% DMSO); also called ERα-LBD; source: partly purified from Escherichia coli (Qiagen)
T1 sequence (looked up): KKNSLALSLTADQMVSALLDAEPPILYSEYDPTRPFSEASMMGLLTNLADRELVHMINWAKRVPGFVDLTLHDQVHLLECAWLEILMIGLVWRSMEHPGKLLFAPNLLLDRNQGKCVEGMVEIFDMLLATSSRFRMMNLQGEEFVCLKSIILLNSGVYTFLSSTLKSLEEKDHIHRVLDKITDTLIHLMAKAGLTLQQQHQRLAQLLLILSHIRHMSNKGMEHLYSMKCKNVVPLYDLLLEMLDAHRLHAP


Molecular target: T1, Polyhistidine (His) tagged ERα ligand …
Assay: peptide or protein array; MARCoNI, PamChip peptide microarray: coregulator motif peptides immobilised; His-ERα-LBD 10 nM (partly purified) in solution with E2 (10^-12 to 10^-5 M), detected with penta-His Alexa Fluor 488 antibody 25 nM; 20 °C; 20 mM Tris-HCl pH 7.5, 500 mM NaCl, 0.2% BSA, 0.05% Tween 20, 2% DMSO
Details: both partners purified

binding result	Binder
binds	TSGPQTPQAQQKSLLQQLLTE (peptide, UniProt Q15788 1421-1441, looked up, Immobilised on the PamChip; source: bought: PamChip peptide microarray, PamGene International BV) [NCOA1_1421_1441]
binds	VYPRPPSKTYRGAFQNLFQSVRE (peptide, UniProt P10275 10-32, looked up, Immobilised on the PamChip; also called Androgen receptor–related coregulator motif; source: bought: PamChip peptide microarray, PamGene International BV) [ANDR_10_32]
binds	PSSHSSLTERHKILHRLLQEGSPS (peptide, UniProt Q15788 677-700, looked up, Immobilised on the PamChip; source: bought: PamChip peptide microarray, PamGene International BV) [NCOA1_677_700]
binds	GQSRLHDSKGQTKLLQLLTTKSDQ (peptide, UniProt Q15596 628-651, looked up, Immobilised on the PamChip; source: bought: PamChip peptide microarray, PamGene International BV) [NCOA2_628_651]

Molecular target: T1, Polyhistidine (His) tagged ERα ligand …
Assay: as above
Details: both partners purified
Remark: another data set of the same source

binding result	Binder
binds	KDLRSYGVASSHLKTLLKKSKVK (peptide, UniProt P48552 173-195, looked up, Immobilised on the PamChip; source: bought: PamChip peptide microarray, PamGene International BV) [NRIP1_173_195_C177S]
binds	SVQPPRSISPSALQDLLRTLKSP (peptide, UniProt Q92793 2055-2077, looked up, Immobilised on the PamChip; source: bought: PamChip peptide microarray, PamGene International BV) [CBP_2055_2077]
binds	TALLYSKRLITYRLRHLLRARSD (peptide, UniProt O15164 373-395, looked up, Immobilised on the PamChip; source: bought: PamChip peptide microarray, PamGene International BV) [TIF1A_373_395_C394S]
binds	KDLRCYGVASSHLKTLLKKSKVK (peptide, UniProt P48552 173-195, looked up, Immobilised on the PamChip; source: bought: PamChip peptide microarray, PamGene International BV) [NRIP1_173_195]
binds	SKNFYFNYKRRHNLDNLLQQHKQ (peptide, UniProt O75376 662-684, looked up, Immobilised on the PamChip; source: bought: PamChip peptide microarray, PamGene International BV) [NCOR1_662_684_C662S]
binds	FVNLYTREGQDRLAVLLPGRHPS (peptide, UniProt Q15650 149-171, looked up, Immobilised on the PamChip; source: bought: PamChip peptide microarray, PamGene International BV) [TRIP4_149_171_C171S]
